Experimental data from paper PMC5755487, “Combining Chemical Cross-linking and Mass Spectrometry of Intact Protein Complexes to Study the Architecture of Multi-subunit Protein Assemblies” (Journal of Visualized Experiments : JoVE, 2017).
Where “and” joins values, the source holds several entries; their conditions need not be identical. Equal entries are not always repeated. Blank lines part the entries; values can stand above or below the molecule they belong to.

B1: large subunit of carbamoyl phosphate synthase (CPS) from Escherichia coli (enzyme)
chain: MPKRTDIKSILILGAGPIVIGQACEFDYSGAQACKALREEGYRVILVNSNPATIMTDPEMADATYIEPIHWEVVRKIIEKERPDAVLPTMGGQTALNCALELERQGVLEEFGVTMIGATADAIDKAEDRRRFDVAMKKIGLETARSGIAHTMEEALAVAADVGFPCIIRPSFTMGGSGGGIAYNREEFEEICARGLDLSPTKELLIDESLIGWKEYEMEVVRDKNDNCIIVCSIENFDAMGIHTGDSITVAPAQTLTDKEYQIMRNASMAVLREIGVETGGSNVQFAVNPKNGRLIVIEMNPRVSRSSALASKATGFPIAKVAAKLAVGYTLDELMNDITGGRTPASFEPSIDYVVTKIPRFNFEKFAGANDRLTTQMKSVGEVMAIGRTQQESLQKALRGLEVGATGFDPKVSLDDPEALTKIRRELKDAGADRIWYIADAFRAGLSVDGVFNLTNIDRWFLVQIEELVRLEEKVAEVGITGLNADFLRQLKRKGFADARLAKLAGVREAEIRKLRDQYDLHPVYKRVDTCAAEFATDTAYMYSTYEEECEANPSTDREKIMVLGGGPNRIGQGIEFDYCCVHASLALREDGYETIMVNCNPETVSTDYDTSDRLYFEPVTLEDVLEIVRIEKPKGVIVQYGGQTPLKLARALEAAGVPVIGTSPDAIDRAEDRERFQHAVERLKLKQPANATVTAIEMAVEKAKEIGYPLVVRPSYVLGGRAMEIVYDEADLRRYFQTAVSVSNDAPVLLDHFLDDAVEVDVDAICDGEMVLIGGIMEHIEQAGVHSGDSACSLPAYTLSQEIQDVMRQQVQKLAFELQVRGLMNVQFAVKNNEVYLIEVNPRAARTVPFVSKATGVPLAKVAARVMAGKSLAEQGVTKEVIPPYYSVKEVVLPFNKFPGVDPLLGPEMRSTGEVMGVGRTFAEAFAKAQLGSNSTMKKHGRALLSVREGDKERVVDLAAKLLKQGFELDATHGTAIVLGEAGINPRLVNKVHEGRPHIQDRIKNGEYTYIINTTSGRRAIEDSRVIRRSALQYKVHYDTTLNGGFATAMALNADATEKVISVQEMHAQIK
notes: carbamoyl phosphate synthase large subunit, Escherichia coli; also called large CPS subunit
B2: small subunit of carbamoyl phosphate synthase (CPS) from Escherichia coli (enzyme)
chain: MIKSALLVLEDGTQFHGRAIGATGSAVGEVVFNTSMTGYQEILTDPSYSRQIVTLTYPHIGNVGTNDADEESSQVHAQGLVIRDLPLIASNFRNTEDLSSYLKRHNIVAIADIDTRKLTRLLREKGAQNGCIIAGDNPDAALALEKARAFPGLNGMDLAKEVTTAEAYSWTQGSWTLTGGLPEAKKEDELPFHVVAYDFGAKRNILRMLVDRGCRLTIVPAQTSAEDVLKMNPDGIFLSNGPGDPAPCDYAITAIQKFLETDIPVFGICLGHQLLALASGAKTVKMKFGHHGGNHPVKDVEKNVVMITAQNHGFAVDEATLPANLRVTHKSLFDGTLQGIHRTDKPAFSFQGHPEASPGPHDAAPLFDHFIELIEQYRKTAK
notes: carbamoyl phosphate synthase small subunit, Escherichia coli; also called small CPS subunit

Key:
[1] = biological target: RvB2 subunit of the RvB1/B2 complex from Chaetomium thermophilum (Chaetomium thermophilum); assay: native MS; purified complex exchanged into 200 mM ammonium acetate, nano-electrospray, Q-ToF instrument; intact complexes and sub-complexes
[2] = biological target: the molecule itself; assay: cross-linking; purified complex with BS3 (0.5-5 mM titrated), 25 °C, 1 h; SDS-PAGE, in-gel trypsin digestion, LC-MS/MS, pLink search
[3] = biological target: B1; assay: native MS; purified complex exchanged into 200 mM ammonium acetate, nano-electrospray, Q-ToF instrument; intact complexes and sub-complexes; settings: both partners purified

stoichiometry N (RvB1 per RvB2 (3:3)) [1]: 1
stoichiometry N (RvB1 per RvB2 (6:6)) [1]: 1
Molecule: RvB1 subunit of the RvB1/B2 complex from Chaetomium thermophilum (natural protein)

Molecule: B1
binding result [2]: binds

Molecule: B2
stoichiometry N [3]: 1 small per large subunit (1:1) and 1 small per large subunit (2:2)
